Laboratory results reported in patent US12083134B2, “Anacardic acid for neural repair” (Vanderbilt University, priority 2018, dated 2024).

Tests used:
[1] = system: dorsal root ganglia-OPC co-cultures; test: In vitro myelination of axons in dorsal root ganglia-OPC co-cultures with IL-33; format: cell-based; settings: DRG-OPC co-cultures, rat rIL-33 10 ng/ml, 16 days
Description: FIG. 9 provides images showing the myelination of dorsal root ganglion axons. The arrows point to the longer segments of myelinated internodes in cultures with added IL-33 (20×).
In preliminary studies, in vitro myelination of axons in the presence of IL-33 using dorsal root ganglia-OPC co-cultures was examined. Dorsal root ganglions (DRGs) were dissected from postnatal day 2 (P2) rat pups and cultured by established methods. Once the OPCs attached to the plates, they were treated with rat rIL-33 (10 ng/ml) for 16 days. At the end of the experiment, cells were stained with tubulin β for axons and MBP for myelin forming oligodendrocytes. Quantitation of myelin in axons was done using image analysis and the amount of myelin around the axons was determined. […] When compared to vehicle treated controls, there was an 18% increase in MBP in cultures treated with IL-33.

MBP in OPCs = test: Western blot of MBP expression in OPC cultures treated with IL-33; format: cell-based, rat; settings: OPCs treated with IL-33
Excerpt: (§1) FIG. 7A provides Western blot analysis of MPB expression in OPC cultures treated with IL-33. FIG. 7B provides qRT-PCR analysis showing the gene expression of transcription elements that bind to the MPB promoter region and major myelin genes treated with IL-33. T3 is the thyroid hormone internal positive control.
(§2) The importance of IL-33 as an inducer of a number of myelin genes has been shown. […] The expression of MBP, myelin oligodendrocyte glycoprotein (Mog), and proteolipoprotien (Plp) along with mRNAs of Purα, Sox10, and Sp-1 in OPCs cultured with IL-33 was quantified. Purα, Sox10, and Sp-1 are transcription elements that bind to the promoter region of MBP to initiate MBP gene expression.

[2] = system: MBP, Mog, Plp, Purα, Sox10, Sp-1 in OPCs; test: qRT-PCR of myelin genes and MBP promoter transcription elements in OPCs cultured with IL-33; format: cell-based, rat
Excerpt: as §1, §2

OPCs = test: Maturation of OPCs cultured with IL-33 (O4 and MBP expressing cells); format: cell-based, rat
Excerpt: The graphs to the right show the quantitation of O4 and MBP.
The formation of CNS myelin is dependent on the differentiation and maturation of OPCs. The process of maturation is well recognized both in vitro and in vivo. Immature OPCs express the receptor for platelet derived growth factor (PDGFR) and also express proteins that are recognized by antibody A2B5, anti O4, and anti Olig2 antibodies. As oligodendrocytes mature they lose their reactivity to A2B5, PDGFR, and Olig 2 and they begin to express myelin proteins including MBP. The degree of maturation can be assessed by determining the percentage of cells expressing early lineage markers such as O4 and the later markers such as MBP. The expression of O4 and MBP in OPCs cultured for 4 and 14 days in the presence or absence of IL-33 was determined. […] The increase seen with IL-33 was similar to that seen with AA.

B1: IL-33: recombinant cytokine IL-33 (rat rIL-33) added exogenously to OPC cultures (protein, UniProt Q66H70 1-264, looked up)
Interleukin-33: MRPRMKYSNSKISPAKCDSTSGRALVPPCKITRSQQKTKDICHVYCMRLRSGLTIRKETCYFGKEPAKRYSLKSGSKHEGRLSTCLPDSRKRSLLGSIQAFAASVDTLSIQGTSLLTESCALSTYNDQSVSFVLENGCYVINVEDCGKNQEKDKVLLRYYESSFPAQSGDGVDGKKLMVNMSPIKDTDIWLNANDKDYSVELQKGDVSPPDQAFFVLHKKSSDFVSFECKNLPGTYIGVKDNQLALVEENDESCNNIMFKLSKM
increase in MBP vs vehicle treated controls [1]: 18% | induction of MBP (MBP in OPCs): 26% | induced expression of MBP [2]: 4.5 fold | induced expression of Mog [2]: 3.8 fold | induced expression of PLP [2]: 2.3 fold | induced expression of Purα [2]: 2.1 fold | induced expression of Sox10 [2]: 3.9 fold | induced expression of Sp1 [2]: 2.2 fold | increase in O4 expressing cells vs normal growth medium (OPCs; OPCs cultured with IL-33, 4 days): 2.3 fold | formation of mature oligodendrocytes expressing MBP (OPCs; OPCs cultured with IL-33, 14 days): increased formation of mature oligodendrocytes
